Test results as given in patent US20180193486A1, “COMPOSITIONS AND METHODS FOR TREATMENT OF AUTOIMMUNE AND OTHER DISEASE” (priority 2010, published 2018).

Target: reconstituted human albumin (Homo sapiens, UniProt P02768)
Experiment: Release of CPT in reconstituted human albumin (PBS solution)
Assay type: in vitro ADME
Conditions: compared with PBS
Method: This solution was added to a lyophilized powder of human plasma to reconstitute 100% human plasma by the recommended amount. The solution was divided into equal volume (250 μL) to 1.5 mL Eppendorf tubes, incubated at 37° C., and stopped at selected time point. Samples were stored at −80° C. until the analysis. Samples were separated from plasma by solid phase extraction columns. The solid phase extraction cartridge (Oasis HLB 1 cc cartridge from Waters) was pre-conditioned with 1 mL of acetonitrile and then with 1 mL of 8.5% H3PO4 before loading. Samples were acidified with equal volume of 8.5% H3PO4 prior to loading. After the acidified solution was loaded on the cartridge, the bed was washed with 3×1 mL of water. Released CPT and polymer conjugate were eluted with 3×1 mL of a solution mixture of acetonitrile and potassium phosphate buffer (pH 4.1) (60/40 v/v). The eluted solution was diluted to 5 mL total volume in a 5 mL volumetric flask. 30 μL of such solution was injected into the HPLC. The peak area from the CPT lactone form was integrated and compared to a standard curve.

Chain of reconstituted human albumin (P02768 25-609): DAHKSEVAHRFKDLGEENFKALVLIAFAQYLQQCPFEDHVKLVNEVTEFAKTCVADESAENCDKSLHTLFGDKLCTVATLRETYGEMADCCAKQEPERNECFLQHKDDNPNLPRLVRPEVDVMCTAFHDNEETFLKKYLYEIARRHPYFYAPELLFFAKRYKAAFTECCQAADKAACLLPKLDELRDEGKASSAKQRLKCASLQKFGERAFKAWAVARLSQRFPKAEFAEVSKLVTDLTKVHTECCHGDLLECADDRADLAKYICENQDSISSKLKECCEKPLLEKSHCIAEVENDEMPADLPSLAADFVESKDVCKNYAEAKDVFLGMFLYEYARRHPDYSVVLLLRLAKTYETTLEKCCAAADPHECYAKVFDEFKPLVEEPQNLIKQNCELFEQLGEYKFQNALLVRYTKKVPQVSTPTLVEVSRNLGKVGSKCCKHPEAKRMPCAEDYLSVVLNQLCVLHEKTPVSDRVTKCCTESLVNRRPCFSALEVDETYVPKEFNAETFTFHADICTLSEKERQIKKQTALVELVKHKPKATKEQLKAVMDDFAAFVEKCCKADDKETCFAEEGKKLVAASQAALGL

Substance | CPT release rate in the presence of albumin
Poly(CDDCys-PA-PEG)-Gly-CPT [HG6] | on the same order of magnitude as in PBS
Poly(CDDCys-PA-PEG)-GlyGlyGly-CPT [HGGG6] | on the same order of magnitude as in PBS
